US20220017629A1 (SHANGHAI PHARMAEXPLORER, published 2022)

T1: OX40 (antigen of the competitive ELISA of Example 5) (UniProt P43489 29-214)
T1 sequence (looked up): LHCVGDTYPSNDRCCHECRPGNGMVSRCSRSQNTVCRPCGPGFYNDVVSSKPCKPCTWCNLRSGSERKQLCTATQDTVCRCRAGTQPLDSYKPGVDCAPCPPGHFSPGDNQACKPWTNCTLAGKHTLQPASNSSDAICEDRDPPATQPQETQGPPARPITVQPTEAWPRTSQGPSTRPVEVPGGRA

T2: human-derived OX40, full-length, on cells (human, UniProt P43489 29-277)
T2 construct: whole, on cells; also called hOX40; CHOK1-hOX40
T2 sequence (looked up): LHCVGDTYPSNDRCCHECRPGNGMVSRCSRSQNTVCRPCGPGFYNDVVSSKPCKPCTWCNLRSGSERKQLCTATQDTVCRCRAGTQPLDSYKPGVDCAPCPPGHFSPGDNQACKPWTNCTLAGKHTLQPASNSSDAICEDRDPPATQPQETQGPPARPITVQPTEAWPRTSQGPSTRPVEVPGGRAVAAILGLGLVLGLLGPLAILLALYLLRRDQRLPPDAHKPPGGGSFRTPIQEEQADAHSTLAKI


Tests used:
[1] = biological target: T1, OX40 (antigen of the competitive ELISA …); assay: competitive ELISA; competitor MEDI0562
[2] = biological target: T1, OX40 (antigen of the competitive ELISA …); assay: competitive ELISA; competitor PF-04518600
[3] = biological target: T1, OX40 (antigen of the competitive ELISA …); assay: competitive ELISA; competitor BMS-986178
[4] = biological target: T1, OX40 (antigen of the competitive ELISA …); assay: competitive ELISA; competitor MOXR0916
[5] = biological target: T2, human-derived OX40, full-length, on …; assay: FACS on cells expressing human OX40 (CHOK1-hOX40)

Binder | percentage of competition [1] | percentage of competition [2] | percentage of competition [3] | percentage of competition [4] | binding result [5]
MAb033 (antibody, IgG1, V domains shown) VH: QVQLQQSGAELVRPGTAVRVSCKASGYAFTNYFIEWVKQRPGQGLEWIGVINPGSGDTYYSEKFQGKATLTADKSSSTAYMQLSSLTSEDSAVYFCAREDDYSWFTYWGQGTLVTVSA VL: DIVLTQSPASLAVSLGQRATISCRASENVDNYGISFMHWYRQKPGQPPKLLIYRASNLESGIPARFSGSGSRTDFTLTINPVETDDVATYYCQQSNKDPYTFGGGTKLEIK | 7% | -7% | 81% | -1% | –
MAb041 (antibody, IgG1, V domains shown) VH: EVQLVESGGGLVKPGGSLKLSCAVSGFTFSNSAMSWVRQTPEKRLEWVATITDGGDYTYYSDNVKGRFTISRDNAKNNLYLQMSHLKSEDTAMYYCVRGISYWGQGTLVTVS VL: DIVLTQSPASLAVSLGQRATISCRASKSVSTSSDSYMHWYQQKPGQPPKLLIKYASNLESGVPVRFSGSGSGTDFTLNIHPVEEEDAATYYCQHSREFPWTFGGGTKLEIK | 2% | -8% | -6% | 1% | –
MAb047 (antibody, IgG2c, V domains shown) VH: EVQLVESGGGLVKPGGSLKLSCAASGFTFSDYGMYWIRQAPEKGLEWVAYISNGGSSIYYADTVKGRFTVSRDNAKNTLFLQMTSLRSEDTAIYYCARGGELGFAYWGQGTLVTVSA VL: DIQMTQSPASLSVSVGETVTITCRASENIYSNLAWYQQKQGKSPQLLVYAAINLVEGVPSRFSGSGSGTQYSLKINSLQSEDFGSYFCQHFWGLPYTFGGGTKLE | 97% | -2% | 0% | -3% | –
MAb034 (antibody, IgG1, V domains shown) VH: EVQLQQSGPVLVKPGASVKMSCKASGYTFTDFYMNWMRQSHGKSLEWIGVIDPYNGNTSYNQKFKGKATLTVDKSSSTAYMELNSLTSEDSAVYYCARGNYYYYAMDYWGQGTSVTVSS VL: DIVLTQSPASLAVSLGQRATISCRASESVSIHGTHLMYWYQQKPGQPPKLLIYAASNLESGVPARFSGSGSETDFTLNIHPVEEEDAATFFCQQSIEDPPTFGGGTKLEIK | 13% | 5% | 93% | 0% | –
MAb035 (antibody, IgG1, V domains shown) VH: QVQLQQSGAELVRPGASVTLSCKASDYTFTDYEMHWVYQTPVHGLEWIGAIDPETGGTAYNQKFKDKAILTADKSSNTAYMELRSLTSEDSAVYFCTKTGYQFDYWGQGTTLTVSS VL: DIVMTQSQKFMSTSVGDRVSVTCKASQNVGSNVAWYQQKPGQSPKALIYSASYRYSGVPDRFAGSGSGTDFTLTISNVQSEDLADYFCQQYNSHPYTFGGGTKLEIK | 59% | -5% | 90% | 3% | –

Results, then the binder that gave them:

percentage of competition [1] | percentage of competition [2] | percentage of competition [3] | percentage of competition [4] | binding result [5] | Binder
97% | -2% | 0% | 90% | – | MAb049 (antibody, IgG1, V domains shown) VH: EVQLQQSGPELVKPGASVKISCKASGHTLTDYYMNWVKQSHGKSPEWIGDINPNNDGIDYNQKFRGKAILTVDKSSSSFYMELRSLTSEDSAVYYCVGFVRGYFVSWGQGTTLTVSS VL: DIQMTQTTSSLSASLGDRVTINCRASQDISNYLNWYQQKPDGTVKLLIYYTSRLRSGVPSRFSGSGSGTDYSLTINNLDQEDFATYFCQQGNTLPWTFGGGTKLEI
96% | 4% | 1% | 90% | – | MAb064 (antibody, IgG2c, V domains shown) VH: QVQLKESGPGLVAPSQTLSITCSVSGFSLTNYAVSWVRQPPGKGLEWLGVMWGDGNTNYHSTLISRLSISKDNSKSQVFLKLNSLQTDDTATYYCARSSGWYFDVWGTGTTVTVSS VL: DIQMTQTTPSLSVTLGDRVTIRCRASQDINNYLNWYQQKPDGTVKLLIYYTSESRSGVPSRFSGSGSGTDYSLTISNLEQEDIATYFCQQGYALPPAFGGGTKLEIK
– | – | – | – | binds | Humab035-24 (antibody, V domains shown) VH: QVQLVQSGAEVKKPGASVKVSCKASDYTFTDYEMHWVRQAPGQGLEWIGAIDPETGGTAYNQKFKDRVTMTADTSTSTVYMELSSLRSEDTAVYYCAKTGYQFDYWGQGTTVTVSS VL: DIQMTQSPSSVSASVGDRVTITCKASQNVGSNVAWYQQKPGKAPKALIYSASYRYSGVPSRFSGSGSGTDFTLTISSLQPEDFATYYCQQYNSHPYTFGQGTKLEIK
26% | 11% | -4% | -3% | – | MAb058 (antibody, IgG1, V domains shown) VH: EVQLQQSGPVLVKPGAAVKMSCKASGYIFTDYYIHWVKLSRGESLEWIGLINPYNGGTNYNQQFTGKATLTVDKSSSTAYVELNSLTSGDSAVYYCVRRTGYFDYWGQGTTLTVSS VL: DVVMTQTPLSLPVSLGDQASISCRSSQSLVHSNGNTYLHWYLQKPGQSPKLLIYKVSNRFSGVPDRFSGSGSGTDFTLKISRVEAEDLGVYFCSQTTHVPYTFGGGTKLEIK
11% | 93% | 2% | -2% | – | MAb053 (antibody, IgG2c, V domains shown) VH: QVQLKQSGPGLVQPSQSLSIICTVSGFSLSDYGVMWVRQSPGKGLEWLGVIWSGGSTDYNAAFTSRLSISRDNSKRQVIFKMNSLQAEDTAIHYCVRETMDYWGQGTSVTVS VL: DIQMTQTTSSLSASLGDRVTISCRASQDISNYLNWYQQRPDGTVKRLIYYTSRLHSGVPSRFSGSGSGTDYSLTISSLEQEDIATYFCQQAHTLPWTFGGGTKLEIK
16% | 95% | 3% | -3% | – | MAb055 (antibody, IgG1, V domains shown) VH: QVQLKQSGPGLLQPSQSLSITCTVSGFSLDEYGVHWFRQSPGKGLEWLGVIWSGGSTDYNAAFISRLSIRKDNSKSQIFFNMNSLQADDTAIYYCVREEWEYWGQGTTLTVS VL: DIQMTQTTSSLSASLGDRVTISCRPSQDIDNYLNWFQQRPDGTIKLLIYYTSRLHSGVPSRFSGSGSGTDYSLTINNLEQEDIATYFCQQAHTLPYTFGGGTKLEIK
